Where two headings read alike, the source gives them in different places.

Data set [1] has as its target soybean trypsin inhibitor (SBTI) (UniProt P01070).
In data set [2] the test system is pepstatin A.
Data set [3] deals with pepstatin A. This is another data set of the same source.

Chain of UniProt P01070 (P01070 25-205): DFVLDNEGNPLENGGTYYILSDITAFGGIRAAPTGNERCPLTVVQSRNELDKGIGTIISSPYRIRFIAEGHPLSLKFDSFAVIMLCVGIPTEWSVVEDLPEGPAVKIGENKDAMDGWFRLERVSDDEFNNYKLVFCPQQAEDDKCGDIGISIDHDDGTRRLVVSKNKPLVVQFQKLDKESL

Trichoderma reesei slp2: in data set [1], the “casein digestion by the SIP purified fractions at pH 5.5” value was “The SBTI and chymostatin were able to inhibit the SLP2 protease in the purified sample”.

For Trichoderma reesei pep4, in the data set on pepstatin A [2], the “casein digestion by the SIP purified fractions at pH 5.5” value is on record as “a large portion of the SIP protease activity was inhibited by pepstatin A”.

B1: Trichoderma reesei gap1 (protein)
chain: TVQSNWGGAILEGSGFTAASATVNVPRGGGGSNAAGSAWVGIDGASCQTAILQTGFDWYGDGTYDAWYEWYPEFAADFSGIDIRQGDQIAMSVVATSLTGGSATLENLSTGQKVTQNFNRVTAGSLCETSAEFIIEDFEECNSNGSNCQPVPFASFSPAITFSSATATRSGRSVSLSGAEITEVIVNNQDLTRCSVSGSSTLTCSYV
Regarding B1, in the data set with LIP peptide, the “casein digestion by the SIP purified fractions at pH 5.5” value is recorded as “inhibited the protease activity slightly less compared to SIP inhibitor”.

B2: Trichoderma reesei pep3 (protein)
chain: MEAILQAQAKFRLDRGLQKITAVRNKNYKRHGPKSYVYLLNRFGFEPTKPGPYFQQHRIHQRGLAHPDFKAAVGGRVTRQKVLAKKVKEDGTVDAGGSKTGEVDAEDQQNDSEYLCEVTIGTPGQKLMLDFDTGSSDLWVFSTELSKHLQENHAIFDPKKSSTFKPLKDQTWQISYGDGSSASGTCGSDTVTLGGLSIKNQTIELASKLAPQFAQGTGDGLLGLAWPQINTVQTDGRPTPANTPVANMIQQDDIPSDAQLFTAAFYSERDENAESFYTFGYIDQDLVSASGQEIAWTDVDNSQGFWMFPSTKTTINGKDISQEGNTAIADTGTTLALVSDEVCEALYKAIPGAKYDDNQQGYVFPINTDASSLPELKVSVGNTQFVIQPEDLAFAPADDSNWYGGVQSRGSNPFDILGDVFLKSVYAIFDQGNQRFGAVPKIQAKQNLQPPQ
On to B2, for which, in the data set with pepstatin A [3], the “casein digestion by the SIP purified fractions at pH 5.5” value is “a large portion of the SIP protease activity was inhibited by pepstatin A”.

B3: Trichoderma reesei pep2 (protein)
chain: MQPSFGSFLVTVLSASMAAGSVIPSTNANPGSFEIKRSANKAFTGRNGPLALARTYAKYGVEVPKTLVDAIQLVKSIQLAKRDSATVTATPDHDDIEYLVPVKIGTPPQTLNLDFDTGSSDLWVFSSDVDPTSSQGHDIYTPSKSTSSKKLEGASWNITYGDRSSSSGDVYHDIVSVGNLTVKSQAVESARNVSAQFTQGNNDGLVGLAFSSINTVKPTPQKTWYDNIVGSLDSPVFVADLRHDTPGSYHFGSIPSEASKAFYAPIDNSKGFWQFSTSSNISGQFNAVADTGTTLLLASDDLVKAYYAKVQGARVNVFLGGYVFNCTTQLPDFTFTVGEGNITVPGTLINYSEAGNGQCFGGIQPSGGLPFAIFGDIALKAAYVIFDSGNKQVGWAQKK
In the case of B3, the “casein digestion by the SIP purified fractions at pH 5.5” value in the data set with pepstatin A [3] is reported as “a large portion of the SIP protease activity was inhibited by pepstatin A”.

B4: Trichoderma reesei pep5 (protein)
chain: MKFHAAALTLACLASSASAGVAQPRADEVESAEQGKTFSLEQIPNERYKGNIPAAYISALAKYSPTIPDKIKHAIEINPDLHRKFSKLINAGNMTGTAVASPPPGADAEYVLPVKIGTPPQTLPLNLDTGSSDLWVISTDTYPPQVQGQTRYNVSASTTAQRLIGESWVIRYGDGSSANGIVYKDRVQIGNTFFNQQAVESAVNISNEISDDSFSSGLLGAASSAANTVRPDRQTTYLENIKSQLARPVFTANLKKGKPGNYNFGYINGSEYIGPIQYAAINPSSPLWEVSVSGYRVGSNDTKYVPRVWNAIADTGTTLLLVPNDIVSAYYAQVKGSTFSNDVGMMLVPCAATLPDFAFGLGNYRGVIPGSYINYGRMNKTYCYGGIQSSEDAPFAVLGDIALKAQFVVFDMGNKVVGFANKNTNV
As to B4, in the data set with pepstatin A [3], the “casein digestion by the SIP purified fractions at pH 5.5” value is “a large portion of the SIP protease activity was inhibited by pepstatin A”.
